This passage reports normalised SPOT signal, Boehringer light units (BLU); mean over the file's lines of this peptide results from article PMC314469, “Protein Interaction Networks by Proteome Peptide Scanning” (PLoS Biology, 2004).

B1: YOR098C 23-35 (peptide)
chain: LKSFFTNPNKKRP
B2: YFL004W 802-814 (peptide)
chain: LEVPERIPEVLRP
B3: YNL061W 602-614 (peptide)
chain: LLKKGVNPKAKRP
B4: YOL072W 276-289 (peptide)
chain: LILGKMVKWGPLRP
B5: YMR049C 412-424 (peptide)
chain: LIPELPSPKDLRP
B6: YAL017W 1330-1343 (peptide)
chain: LIKSILNRSVPKRP
B7: YBR136W 2029-2042 (peptide)
chain: LESNSMRGYQPFRP
B8: YGR198W 51-64 (peptide)
chain: LHYHVIGSNGPAKP
B9: YKL048C 110-123 (peptide)
chain: LGKVVAVKIIPKKP
B10: YGL174W 3-16 (peptide)
chain: LHQYLSETYGPTKP
B11: YDR392W 289-302 (peptide)
chain: LFDGPENVINPLKP
B12: YFR013W 73-85 (peptide)
chain: LKERANKPKRKRP
B13: YLR054C 309-322 (peptide)
chain: LGIDKRSSTKPTKP
B14: YJL095W 372-385 (peptide)
chain: LFGSGIGEEAPTKP
B15: YAL028W 269-282 (peptide)
chain: LESSPKKHVSPSRP
B16: YOL087C 650-662 (peptide)
chain: LELVQPLPASKKP
B17: YPL063W 179-191 (peptide)
chain: LLPPPPPPPYQRP
B18: YOL008W 135-148 (peptide)
chain: LISKWTIMPHPNRP
B19: YJL141C 497-510 (peptide)
chain: LKPENILLSAPDKP
B20: YLL015W 4-16 (peptide)
chain: LEVVDGSPYGYRP
B21: YKR084C 74-87 (peptide)
chain: LKKTLKKKKTPKKP
B22: YOL078W 925-937 (peptide)
chain: LHLEKMKPDLKKP
B23: YBR118W 226-239 (peptide)
chain: LLEAIDAIEQPSRP
B24: YDL180W 44-56 (peptide)
chain: LLHQYDDPLMFKP
B25: YER101C 153-165 (peptide)
chain: LIDPRVDPILMRP
B26: YMR110C 95-107 (peptide)
chain: LHLIEILPKLIKP
B27: YML010W 362-374 (peptide)
chain: LIPVQELPLLLKP
B28: YDR266C 568-581 (peptide)
chain: LKSLNLPQLPPPKP
B29: YBR050C 283-296 (peptide)
chain: LKLSNISHHSPVKP
B30: YLR085C 335-347 (peptide)
chain: LESLSMLPEIVRP
B31: YOR147W 33-45 (peptide)
chain: LITRLRVPTIKRP
B32: YCR012W 192-205 (peptide)
chain: LKYFGKALENPTRP
B33: YGR232W 85-98 (peptide)
chain: LEVVKSLYDRPLKP
B34: YML113W 123-136 (peptide)
chain: LLQQQRVDVVPPKP
B35: YLR193C 56-68 (peptide)
chain: LKKSGKLPTWVKP
B36: YKR056W 387-400 (peptide)
chain: LLRENTTILDPSKP
B37: YBR133C 322-335 (peptide)
chain: LLQEDSRIMPPLKP
B38: YPR099C 85-97 (peptide)
chain: LHGNTNAPTPLRP
B39: YNL213C 178-191 (peptide)
chain: LIARNVRTFKPFKP

For this test, the target named is T1, Abp1 SH3 (ABP1_YEAST), P15891.
T1 chain: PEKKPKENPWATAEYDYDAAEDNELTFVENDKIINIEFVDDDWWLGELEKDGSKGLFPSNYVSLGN
Kind of test: SPOT array.
Regarding B1, the normalised SPOT signal, Boehringer light units (BLU); mean over the file's lines of this peptide was 323.
Regarding B2, the normalised SPOT signal, Boehringer light units (BLU); mean over the file's lines of this peptide is 14.9.
In the case of B3, the normalised SPOT signal, Boehringer light units (BLU); mean over the file's lines of this peptide is 54.3.
B4 returned a normalised SPOT signal, Boehringer light units (BLU); mean over the file's lines of this peptide of 404.
The molecule B5 registered a normalised SPOT signal, Boehringer light units (BLU); mean over the file's lines of this peptide of 81.6.
In the case of B6, the normalised SPOT signal, Boehringer light units (BLU); mean over the file's lines of this peptide stood at 324.
In turn, B7 registered a normalised SPOT signal, Boehringer light units (BLU); mean over the file's lines of this peptide of 250.
B8 gave a normalised SPOT signal, Boehringer light units (BLU); mean over the file's lines of this peptide of 60.8.
The result for B9 reads 185; that for B10, 39; that for B11, 35.
Consider B12, for which the normalised SPOT signal, Boehringer light units (BLU); mean over the file's lines of this peptide amounted to 157.
In turn, B13 registered a normalised SPOT signal, Boehringer light units (BLU); mean over the file's lines of this peptide of 188.
On to B14, for which the normalised SPOT signal, Boehringer light units (BLU); mean over the file's lines of this peptide was 118.
The result for B15 reads 184; that for B16, 118.
In turn, B17 returned a normalised SPOT signal, Boehringer light units (BLU); mean over the file's lines of this peptide of 111.
B18: the normalised SPOT signal, Boehringer light units (BLU); mean over the file's lines of this peptide came out at 1030.
The result for B19 reads 7.9; that for B20, 0.
For B21, the normalised SPOT signal, Boehringer light units (BLU); mean over the file's lines of this peptide amounted to 163.
With B22 the figure was 88.4; with B23, 41.3; with B24, 19.6.
As for B25, the normalised SPOT signal, Boehringer light units (BLU); mean over the file's lines of this peptide turned out to be 75.9.
The result for B26 reads 110.
Regarding B27, the normalised SPOT signal, Boehringer light units (BLU); mean over the file's lines of this peptide amounted to 74.2.
The molecule B28 displayed a normalised SPOT signal, Boehringer light units (BLU); mean over the file's lines of this peptide of 40.9.
B29: the normalised SPOT signal, Boehringer light units (BLU); mean over the file's lines of this peptide was found to be 103.
Regarding B30, the normalised SPOT signal, Boehringer light units (BLU); mean over the file's lines of this peptide is 118.
The result for B31 reads 748; that for B32, 117; that for B33, 63.6.
On to B34, for which the normalised SPOT signal, Boehringer light units (BLU); mean over the file's lines of this peptide came out at 140.
With B35 the figure was 40.8.
B36 registered a normalised SPOT signal, Boehringer light units (BLU); mean over the file's lines of this peptide of 177.
In the case of B37, the normalised SPOT signal, Boehringer light units (BLU); mean over the file's lines of this peptide was 185.
Take B38: the normalised SPOT signal, Boehringer light units (BLU); mean over the file's lines of this peptide came to 69.
In turn, B39 showed a normalised SPOT signal, Boehringer light units (BLU); mean over the file's lines of this peptide of 176.
